Measurements published in article PMC6923934, “The peptide transporter 1a of the zebrafish Danio rerio, an emerging model in nutrigenomics and nutrition research: molecular characterization, functional properties, and expression analysis” (Genes & Nutrition, 2019).

Tests used:
[1] = substrate: NCC(=O)N[C@@H](CCC(N)=O)C(=O)O; experiment: two-electrode voltage clamp, transport current in Xenopus oocytes; type: cell-based, Danio rerio; settings: pH 6.5, -60 mV, NaCl buffer, proton-coupled
From the text: two-electrode voltage clamp, transport current in Xenopus oocytes on zebrafish PepT1b (Slc15a1b)

[2] = substrate: NCC(=O)N[C@@H](CCC(N)=O)C(=O)O; experiment: as above; type: cell-based, Danio rerio; settings: pH 6.5, -60 mV, NaCl buffer, proton-coupled; remark: listed apart in the source
From the text: two-electrode voltage clamp, transport current in Xenopus oocytes on zebrafish PepT1a (Slc15a1a)

B1: zebrafish PepT1b (Slc15a1b) (Danio rerio) (protein)
chain: MADKEGHKQKKERASCFGYPVSIFFIVVNEFCERFSYYGMKAVLVLYFKYFIGWDDDLSTTIYHTFVALCYLTPIMGAIIADSWLGKFKTIVYLSIVYTIGQVIMAISAIHDITDANRDGKPDNKTLHISLSMLGLILIALGTGGIKPCVAAFGGDQFEDHQEKQRSTFFSIFYLSINAGSLLSTLITPILRSQECGIYAKQSCYPLAFGVPAALMVVALIVFVIGHKMYIMESPKGNILLQVINCIGFALNNRFRHRGKQYPKREHWMDWAEEKYDKLLIAQVKMVVKVLFLYIPLPMFWALFDQQGSRWTIQATTMDGNFGGFVIQPDQMQIVNPILIVIMVPIMDSAIYPLIKLCRINFTPLRKMTVGMVLAALAFVAAALLQLQIDETMPKFPSTSQTQLKFLNVESTSLPVVVEGQDQFMVPGFNASSEYLTLDKENVTISAGGVNDTAFLKTGTRHTVLMNAAGMRNTLDDLTEKPEQGLNAIRFVNGWENRLNVSVKSDNVHADPLDASVYLLVPHGKVNFTIFDGGDGKCHYIMQLGFGSTYTVLIPSTFAFGQTCSESFEAVQDMEPNRIHMAWQVIQYFLLTCGEVVYSVTGLDFSYSQAPSNMKSVLQAGWLLTVAVGNIIVLIVAEAGSLPDQWAEYLLFASLLVAVSIIFAIMAYFYTYIDPNEIEAKFKELEPEDKKRKEMQMTAKDNMAYVHNENTNIKQTKI
notes: cRNA-expressed in Xenopus laevis oocytes; construct not described here (previously cloned zebrafish PepT1)
B1 was tested, and the K0.5 [1] was 0.13 ± 0.02 mmol/L.

B2: zebrafish PepT1a (Slc15a1a) (Danio rerio) (protein)
chain: MPDSKMDETKKKKKKTAECCGYPISIFFIVVNEFCERFSYYGMRAVLVLYFRYFLLWDDDLATSIYHAFVALCYLTPILGAIIADSWLGKFKTIIYLSIVYAVGQVVMAVSTIHDITDANRDGTPDNFTLHIALSMLGLVLIALGTGGIKPCVAAFGGDQFQEHQSRQLNTFFSVFYLCINAGSLLSTLITPVLRAQECGIHTQQQCYPLAFGVPAALMVVSLVVFIAGSGMYTKTAPEGNIMGSVCKCIWFALNNRFRHRSDIYPKREHWMDWAEEKYDKLLIAQIKMVLKVLFLYIPLPMFWTLFDQKGSRWTLQATTMTGDFGGFVLQPDQMQTVNPILILTLVPIMDRIIFPLIKKCGLNFSPLKRMTVGMLFAATAFIAAALVQMEIDKTLPNFPSSSESQLKVVNMHSESLIVTVPSQEPLLIGSFESSPDYITFDQQDIRLAFNTTPEINKDLSLIKGSRQTLIIPSEPAEMYLKEDIKSKPKEGKNAVRFVNGWTAYLNITNLESSLQPSETSNYTLVSQGMRKFTLTDGIQSCEFSRKFGFGSSYTFLIPSDLFSTDCESIKEIEDMQPNSVHMALQIPQYFLITTGEVMFSVTGLQFSYSQAPKNMKSVLQAGWLCTNAVGNIIVLIVAELGKLPKQWAEYVLFASLLVAVSIIFSIMAYFYTYIDPAEIEAEILKQQETDPDKKKKKETLEMEEKENEQEIKQTKI
notes: full-length cDNA cloned from zebrafish intestine, 717 residues, pSPORT1, cRNA in Xenopus laevis oocytes; untagged
For B2, the K0.5 [2] was 0.24 ± 0.07 mmol/L.
